Measured values from patent US20230141630.
Read-outs that look alike come from different tables or passages of the source.

Legend:
[1] = tested on: Induro RT (Group II Intron-RT); details: 5'-phosphate primer; 50 C 30 min, 10 mM DTT; peak cDNA 7.2 kb
[2] = tested on: Induro RT (Group II Intron-RT); details: [none]; 38 C 5 min then 60 C 30 min
[3] = tested on: Group II Intron-RT (unspecified); details: 1 h at 55 C, Induro buffer, 1 ug circRNA, 100 ng RT

## GGATTCTAAAACGGATTACCAGGGATTTCAGTCGATGTACACGTTCGTCACATCTCATCTACCTCCCGGTTTTAATGAATACGATTTTGTACCAGAGTCCTTTGATCGTGACAAAACAATTGCACTGATAATGAATTCCTCTGGATCTACTGGGTTACCTAAGGGTGTGGCCCTTCCGCATAGAACTGCCTGCGTCAGATTCTCGCATGCCAGAGATCCTATTTTTGGCAATCAAATCATTCCGGATACTGCGATTTTAAGTGTTGTTCCATTCCATCACGGTTTTGGAATGTTTACTACACTCGGATATTTGATATGTGGATTTCGAGTCGTCTTAATGTATAGATTTGAAGAAGAGCTGTTTTTACGATCCCTTCAGGATTACAAAATTCAAAGTGCGTTGCTAGTACCAACCCTATTTTCATTCTTCGCCAAAAGCACTCTGATTGACAAATACGATTTATCTAATTTACACGAAATTGCTTCTGGGGGCGCACCTCTTTCGAAAGAAGTCGGGGAAGCGGTTGCAAAACGCTTCCATCTTCCAGGGATACGACAAGGATATGGGCTCACTGAGACTACATCAGCTATTCTGATTACACCCGAGGGGGATGATAAACCGGGCGCGGTCGGTAAAGTTGTTCCATTTTTTGAAGCGAAGGTTGTGGATCTGGATACCGGGAAAACGCTGGGCGTTAATCAGAGAGGCGAATTATGTGTCAGAGGACCTATGATTATGTCCGGTTATGTAAACAATCCGGAAGCGACCAACGCCTTGATTGACAAGGATGGATGGCTACATTCTGGAGACATAGCTTACTGGGACGAAGACGAACACTTCTTCATAGTTGACCGCTTGAAGTCTTTAATTAAATACAAAGGATATCAGGTGGCCCCCGCTGAATTGGAATCGATATTGTTACAACACCCCAACATCTTCGACGCGGGCGTGGCAGGTCTTCCCGACGATGACGCCGGTGAACTTCCCGCCGCCGTTGTTGTTTTGGAGCACGGAAAGACGATGACGGAAAAAGAGATCGTGGATTACGTCGCCAGTCAAGTAACAACCGCGAAAAAGTTGCGCGGAGGAGTTGTGTTTGTGGACGAAGTACCGAAAGGTCTTACCGGAAAACTCGACGCAAGAAAAATCAGAGAGATCCTCATAAAGGCCAAGAAGGGCGGAAAGTCCAAACTCGAGTAAGGTTAACCTGCAGGGAAAAAACAAAAAACAAAACGGCTATTATGCGTTACCGGCGAGACGCTACGGACTT / ACTTGCCTGTCGCTCTATCTTCTTTGTTTTTTCCCTGCAGGTTAACCTTACTC [circRNA 1.8 kb with RT primer]
[1]
  activity (copies per cDNA): 4

## UGAGGUAGUAGGUUGUAUAGUUUACUGACCAGGACGACGACA / TGTCGTCGTCCTGGTCAGTA [42 nt circularized small RNA with RT primer]
[2]
  activity (copies per cDNA): > 100

## AAAATCCGTTGACCTTAAACGGTCGTGTGGGTTCAAGTCCCTCCACCCCCACGCCGGAAACGCAATAGCCGAAAAACAAAAAACAAAAAAACCCCCCTCTCCCTCCCCCCCTAACGTTACTGGCCGAAGCCGCTTGGAATAAGGCCGGTGTGCGTTTGTCTATATGTTATTTTCCACCATATTGCCGTCTTTTGGCAATGTGAGGGCCCGGAAACCTGGCCCTGTCTTCTTGACGAGCATTCCTAGGGGTCTTTCCCCTCTCGCCAAAGGAATGCAAGGTCTGTTGAATGTCGTAAAAAAACAAAAAACAAAACGGCTATTATGCGTTACCGGCGAGACGCTACGGACTT / TCCAGAGGAACTGCTTCCTTC [circRNA 0.4 kb with DNA primer]
[3]
  activity: 4.5 µg cDNA
